Experimental data as given in FireProtDB (doi:10.1093/protein/15.6.455).

B1: Cytochrome c-551, P00099 (parent)
chain: MKPYALLSLLATGTLLAQGAWAEDPEVLFKNKGCVACHAIDTKMVGPAYKDVAAKFAGQAGAEAELAQRIKNGSQGVWGPIPMPPNAVSDDEAQTLAKWVLSQK

Variants of: B1
Conditions: Pseudomonas aeruginosa (strain ATCC 15692 / DSM 22644 / CIP 104116 / JCM 14847 / LMG 12228 / 1C / PRS 101 / PAO1), pH 3.6, Thermal, DSC, sodium acetate 50 mM, reversible: yes, structure 451C, whole UniProt chain shown; for ddG of mutation (higher = less stable) / heat capacity change of unfolding / unfolding enthalpy (calorimetric): 62.6 °C

| Variant | ddG of mutation (higher = less stable) [kcal/mol] | heat capacity change of unfolding [kcal/mol/K] | unfolding enthalpy (calorimetric) [kcal/mol] | Tm [°C] | change of melting temperature, mutant - wild type (higher = more stable) [°C] |
| --- | --- | --- | --- | --- | --- |
| MKPYALLSLLATGTLLAQGAWAEDPEVLAKNKGCMACHAIDTKMVGPAYKDVAAKYAGQAGAEAYLAQRIKNGSQGVWGPIPMPPNAVSDDEAQTLAKWVLSQK | -3.02 | 1 | 64.8 | 77.4 | 14.8 |
| MKPYALLSLLATGTLLAQGAWAEDPEVLAKNKGCMACHAIDTKMVGPAYKDVAAKFAGQAGAEAELAQRIKNGSQGVWGPIPMPPNAVSDDEAQTLAKWVLSQK | -1.88 | 0.64 | 64.2 | 72.4 | 9.8 |
| MKPYALLSLLATGTLLAQGAWAEDPEVLAKNKGCMACHAIDTKMVGPAYKDVAAKFAGQAGAEAELAQRIKNGSQGVWGPIPMPPNAVSDDEAQTLAKWILSQK | -2.61 | 0.92 | 64.4 |  |  |
| MKPYALLSLLATGTLLAQGAWAEDPEVLAKNKGCMACHAIDTKMVGPAYKDVAAKYAGQAGAEAYLAQRIKNGSQGVWGPIPMPPNAVSDDEAQTLAKWILSQK | -4.55 | 1.12 | 71.1 | 82.4 | 19.8 |
| MKPYALLSLLATGTLLAQGAWAEDPEVLFKNKGCVACHAIDTKMVGPAYKDVAAKFAGQAGAEAELAQRIKNGSQGVWGPIPMPPNAVSDDEAQTLAKWILSQK | -1.11 | 0.73 | 65.6 |  |  |
| MKPYALLSLLATGTLLAQGAWAEDPEVLFKNKGCVACHAIDTKMVGPAYKDVAAKYAGQAGAEAYLAQRIKNGSQGVWGPIPMPPNAVSDDEAQTLAKWILSQK | -2.21 | 0.95 | 67 | 73.3 | 10.7 |
| MKPYALLSLLATGTLLAQGAWAEDPEVLFKNKGCVACHAIDTKMVGPAYKDVAAKYAGQAGAEAYLAQRIKNGSQGVWGPIPMPPNAVSDDEAQTLAKWVLSQK | -1.26 | 0.74 | 65.5 | 69 | 6.4 |
